The values that follow come from article PMC5866549.

Several values for one entry are separate records, joined by “and”; a condition that tells them apart may be missing. Equal values may be shown once.

In the assay the target is mucin (purified mucins). In words: AFM force spectroscopy.

For the substance “SRRP_(53608)-BR, binding region of the serine-rich repeat protein from Lactobacillus reuteri ATCC 53608 (domain or fragment)”, the modal adhesion force worked out at 105 pN; the modal adhesion force (bimodal) was 72 pN and 120 pN.
